From the nanobody polyreactivity screen of Harvey et al. (2022)

Experiment: yeast display, Sf9 membrane polyspecificity reagent, FACS + sequencing; frameworks hold sequencing errors
Method in brief: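 In a synthetic yeast display library (Saccharomyces cerevisiae BJ5465), nanobody expression was induced with galactose for 36–48 hours. FACS gates were set low and high (top ~1%) using anti-HA fluorescence for expression and streptavidin fluorescence for binding of the Sf9 membrane reagent. Each polyreactivity label is drawn from the gate of origin.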

Sequence | polyreactivity (PSR sort gate)
QVQLVESGGGLFQAGGSLRLSCAASGFTCSGYAMGWYRPAPGKERELVAGISASAGSTYADSVKGRFTISRDNAKNTVYLQMNSLKPEDTAVYYCAADLSFKAAIWFNEYGYWGQGTQVTVSS | low polyreactivity
QVQLVESGGGLFQAGGSLRLSCAASGFTIEWYAMGWYRQAPGKERELVATITSSGDSTYYADSEKGRFTISRDNAKNTVYFQMYSLKPEDTAVYYCNVDNSVYDFSEYVYWGQVTQVTVSS | high polyreactivity
QVQLVESGGGLFQAGGSLRLSCAASGFTSLWYGIGWYRPAPGKERELVAAITSDSSTYYADSVKGRFTISRDNAKNTVYLQMYSLKPQDTAVYSCAKYFVYVGYGRYAFWGQGTQVTVSS | low polyreactivity
QVQLVESGGGLFQAGGSLRLSCAASGIIFPRYMGWYRQAPGKERELVAAIRWSSDDTNYADSVKGRFTISRDNAKNTVYLQMNSLKPEDTAVYYCAADSYYDRTIQFEFSARTYEYWGQGTQVTVSS | low polyreactivity
QVQLVESGGGLFQAGGSLRLSCAASGIIFYVNDMGWYRQAPGKERELVADISGGTSTNYADSVKGRFTISRDNAKNTVYLQMNSLKPEDTAVYYCATAFIVQFPGSDYWGQGTQVTVSS | low polyreactivity
QVQLVESGGGLFQAGGSLRLSCAASGRIFAYYTMGWYIQAPGKERELVAAITKRGGSTYYADSVKGRFTISRDNAKNTFYLQMNSLKPEDTAVYYCAADPNRYRYRSPHDYWGQGTQVTVSS | high polyreactivity
QVQLVESGGGLFQAGGSLRLSCAASGRIFGNNTMGWYRQAPGKERELVAAINSGGRTYYADSVKGRFTISRDNAKYTVYLQMNSLKTEDTAVYYCATTTYKRFYRAPTSKYDYWGQGTLVTVSS | high polyreactivity
QVQLVESGGGLFQAGGSLRLSCAASGRILDYYAMGWYRQAPGKERELVAAIRRRGVITYADSVKGRFTISRDNAKNTVYLLMKSLKPEDTAVYYCAAGGYEYGYWGQGTQVTVSS | low polyreactivity
QVQLVESGGGLFQAGGSLRLSCAASGRTFQNAMGWYRQAPGKERELVAAISVRGTRTYYADSVKGRFTISRDNAKNTVYLQMNSLKPEDTAVYYCAADRGKATSADDYWGQGTQVTVSW | high polyreactivity
QVQLVESGGGLFQAGGSLRLSCAASGRTFYPNAMGWYRQAPGKERELVAAISWSVGTTHYADSVKGRFTISRDNAKNSVYLQMLSLKPEDTAVYYCNARWYYGVYDYWGQGTQVTVSS | low polyreactivity
QVQLVESGGGLFQAGGSLRLSCAASGSIFGYYAMGWYIQAPGKERELVARISYSGGTTYYADSVKGRFTISRDNAKNTVYLQMNSLKPEDTAVYYCNARIPYSWRYGYWGQGTQVTVSS | high polyreactivity
QVQLVESGGGLFQAGGSLRLSCAASGSIFTRYAMGWYRQAPGKERELVAAISNRGGRTYYADSVKGRFTISRDNAKNTVYLQMNILKPEDTAVYYCNAATTRRIPQSDNYWGQGTQVTVSS | high polyreactivity
QVQLVESGGGLFQAGGSLRLSCAASGSIFVRNAMGWYRKATGKERELVAGISATGGSTYYADSVKGRFTISRDNAKITVYFQMKSLKPEDTAVYYCAKKVSTRFARYRYDYWGQVTQVTVSS | high polyreactivity
QVQLVESGGGLFQAGGSLRLSCAASGSTFDTYAMGWYRQAPGKERELVAAISYRGGNTYYADSVKGRFTISRDNAKNTVYLQMNSLKPEDTAVYYCNAGVSIGRSRRYDYWGQGTQVTVSS | low polyreactivity
QVQLVESGGGLFQAGGSLRLSCAASGSTFGRYAMGWYRQAPGTEREWLAAISRRGGSTYYADSVKGRFTISRDNAKNTVYLQMNSLKPEDSAVYYCATGYPIDLGREFDYWGQGFQVTVSS | high polyreactivity
QVQLVESGGGLFQAGGSLRLSCAASGSTFNTNAMAWYRHAPGKERELVAAISWSSTRTYYADSVKWRFTISRDNAKNTVYLQMNSLKPEDTAVYYCAAATYQSRYFQRFDYWGQGTQVTVSS | high polyreactivity
QVQLVESGGGLFQAGGSLRLSCAASGSTFRANAMGWYRQAPGKETELVAAISQSGGITYYADSVKVRFTISRDNAKNTVYLQMKSLKPEDTAVYYCAALGYRIIRGRFYSWGQGTQVTVSS | high polyreactivity
